# Laboratory results: the nanobody polyreactivity screen of Harvey et al. (2022)
# Assay: yeast display, Sf9 membrane polyspecificity reagent, FACS + sequencing; frameworks hold sequencing errors
# Method in brief: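 Synthetic nanobody libraries on Saccharomyces cerevisiae BJ5465 were galactose-induced for 36–48 hours, stained 1 hour at 4 °C with 10% biotinylated, detergent-solubilized Sf9 membrane reagent and enriched on streptavidin microbeads. FACS then separated cells into low and high (top ~1%) gates by anti-HA (expression) and streptavidin (reagent binding) fluorescence. Genes were colony-PCR amplified, MiSeq 2 × 250 sequenced and CDR-length filtered. A clone's polyreactivity label is that of its gate of origin.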
row,Sequence,polyreactivity (PSR sort gate)
1,QVQIVESGGGLVQAGGSLRLSCPASGSIFPQYAMGWSRQAPRKERELVAGISGSGGGTYYADSVKGRITILRDNAKNNVFLQMNSVKPEETAVYYCNALYAPYGWFYGLYDYGGQGTQVTVSS,low polyreactivity
2,QVQIVESGGGLVQAGGSLRLSWAASGSNLDFNAMGWYRQAHGKERELVAAINNSGGSTYYADSLKGRFTISRDTAKKTVYLQMNRLKPEDTAVYYCARYAFWKRAYWGQGTQETVSS,low polyreactivity
3,QVQIVESGGGLVQAGGSLRVSCAASGSILSKYDMGWYRPAPGKERELVAVISSRGGSTYYADSVKGRFTISRDNAKNTVYLQMNSLKPEDTAVYYCNARSGRGYGYWGQGTQVTVSS,high polyreactivity
4,QVQIVESGGGLVQAGGSLRVTCAASGSIFPPKAMGWYRQAPGKERELLADISGSGRTYYADSVKGRFTISRDNAKNTVYLQMNSLNPEDTAVYYCAARQQRRPTTRVFGYWGQGTQVTVSS,high polyreactivity
5,QVQIVESGGGLVQAGGSRRFSCAASGGTFNWNAMGWYRQAPGKERELFAAINRTGGSTYYADSVKARFTISRDNAMNTVYLQMNSLKPEDTAVYYCAKRYYRFYLGWPPEDSWGQGTQVSVSS,low polyreactivity
6,QVQIVESGGGLVQAGRSLRLSCAASGLIFRRYTMGWYRQAPGKERELVAAIRNSGSSTDYADSVKGRFTISRDNAKNTVYLQMNSLKPEYTAVYYCAKRSACKLTYDSWGQGTQVTGSS,low polyreactivity
7,QVQIVESGGGLVQPGGSLRLSCAASGITFYKYAMGWYRPAPGKERELLAAISKSGGRTYYADSVKGRFTISRDNAKNTVYLQMNSLKPEDTAVYYCNAQPNYAYHGEDDYWGQGNQVTVSS,high polyreactivity
8,QVQIVESGGGLVQPGGSLRLSCAASGSTFTRNAMGWYRQAPGKERELVAAISFSGGSTYYADSVKGRFTISRDTAKNTVYLQMNSLKPEDTAVYYCAAEEGRVFSGGYDYWGQGTQVTVSS,high polyreactivity
9,QVQIVESGGGVVQAGGSLRLICAASGSTFLVYAMGWYRQAPGKERELVAAISGRGGRTYYADSVKGRFTISRDIAKNTVYLQMNSLKPEDTAVYYCAKVSKYGAYDYWGQGTQVTVSS,high polyreactivity
10,QVQIVESGGRLVQAGGSLRLSCAASGLTFRRYAMGWYRQAPGKERELVASITYRGGSTYYADSVKARFTISRDNAKNTVYLQINSLKPEDTAVYHCNAKGQRNKRCRGYWGQGSQVTVSS,high polyreactivity
11,QVQIVESGGVLVQAGGSLRLSCAASGRIFGSYAMGWYRQAPGKERELVAGIRSVGSTNYADSVKGRFTISRDNEKNTVYLQMNSLKPEDTAVYYCAACLWHPTFGYWGQGTQVTVSS,low polyreactivity
12,QVQIVESGRGLVQAGGSLRLSCAASGSIFKKYAMGWYRQAPGKERELVAAISSRGGRTYYADSVKGRFTISRDNAKNTVYLQMNSLKPEDTAVYYCNTDISQPGAYDYWGQGTQVTVSS,high polyreactivity
13,QVQIVESWGGLVQAGGSLRLSCAASGSTIYTYPMGWYRQAPGKERELFAAISYRGGSTYYADSVKVRYSISRDNAKNTVYLQMKSLKPEDTAVYYCNVDGVVVGTKRGGYDYWGQGTQVTVSS,low polyreactivity
14,QVQLAESGACLVQAGGRLRLSCAASGRIFSFYAMGWYRQAPGKERELVITSGGDTNYADSVKGRFTISRDNAKNSVYLQMNSLKPEDTAVYYCNAEGDRSQPYNFDYWGQGTQVTVSS,low polyreactivity
15,QVQLAESGGGLVQAGGSLRLSCAASGLTFNAYAMGWYRQAPGKERELVADITTSDGSTFYADSVKGRFTISRDNAKNTVYLQMNRLKPEDTAVYYCNADAYGWYSGPWFKWLLWYDYWGQGTQVTVSS,low polyreactivity
16,QVQLAESGGGLVQAGGSLRLSCAASGRTFGRYVMGWYRQAPGKERELVAAITSSSSSTYADSVKGRFTISRDNAKNTVYLQMNSLKPEDTAVYYCNKRYTSRHRPEYDYWGQGTQVTVSS,high polyreactivity
17,QVQLAESGGGLVQAGGSLRLSCAASGSIFWGNAMGWYRQATGKERELVAAIDWSGGSTYYADSVKGRFTISRDNGKNTVYLQMNSLKAEDTAVYYCAASGRYDYDYWGQGTQVTVSS,low polyreactivity
18,QVQLAESGGGLVQAGGSLRLSCAASGSNFSPNAMGWYRQAPGKERELVAAITAGARTNYADSVKGRFTISRDNSKNTFYLQMNSLKPEDTAVYYCNAESYYDYNYWGQGTQVTVSS,low polyreactivity
19,QVQLDESGRGLVQAGGSLRLSCAASGSTFGRYAMGRYREAPGKERELVAAISRGGGSTYYADSVKGRFTISRDNAKNTVYLQMNSLKPEDTAVYYCATDQNYPYSGGGDYWGQGTQVTVSS,low polyreactivity
20,QVQLEDSGGGLVQAGGSLPLSCAASGRTFGLNVMGWSRQATGTERELLASIRNIGGSTYYADSVKGRFTISCDNAKNTVYLQMNSLKPEDTAVFYCAAVTRSWVHYRYYYWGQGTQVTVSS,high polyreactivity
21,QVQLEDSGGGLVQAGGSLRLSCAASGATFDGYTMAWYRQAPGKERELVAAISWRGTSTYYADSVKGRFTISRDNAKNTVYLQMNSLKPDDTAVYYCAADAYSGYDYWGQGTQVNVSS,low polyreactivity

row,Sequence,polyreactivity (PSR sort gate)
1,QVQLEDSGGGLVQAGGSLRLSCAASGRIFGKYAMGWYRQAPGKERELVAAISYSGGRTYYADSVKGRFTISRDNAKNTVYLQMNSLTPEDTAVYYCAAVYHGINSYDYDYSGQGTQVTVSS,high polyreactivity
2,QVQLEDSGGGLVQAGGSLRLSCAASGRIFGTNAMGWYRQAPGKERELVATITRGGGNTYYADSVKGRFTISRDNAKNTVYLQMNSLKPEDTAVYYCAAKFNRFAWYSHYDYWGQGTQVTVSS,low polyreactivity
3,QVQLEDSGGGLVQAGGSLRLSCAASVSTFSRNAMGWYRQAPGKEREFVAAISWSGSSTYYADSVKGRFTISRDNAKNTVFLQMNSLKPEDTAVYYCAARETWYPYYWMGYWGQGTQVTVSS,high polyreactivity
4,QVQLEDSGGGLVQAGGSLRLSSAASGIIFYPNAMGWYRQSPGKERELVAAITSDGSTYYADSVKGRFTISRDNAKNTVYLQMNSLKPEDTAVYYCDDWDDYGYDYWGQGTQVTVSS,low polyreactivity
5,QVQLEDSGGGLVQAGGSLRLTSPASGSIFWYYDMGWYRQAPGKERELVAAITVIGSSTNYADSVKGRFTNSRDNAKITVYLQMNRLKPEDTAVYYCAAVRPPTPSRRREDYWGQGTQVTVSS,low polyreactivity
6,QVQLEDSRGGLVQAGGSLRLSCAASGLILASYAMGWNRQAQGKERQLVSAISRSGGSTYYEDSVKVRFTISRDNAKITVYLQMKSLKPEHTAVYYFAAKYPPKTPVNTYGNSFYYWGQGTQVTVSS,low polyreactivity
7,QVQLEEAGGGLVQAGGSLRLRCAASGRTFWYYAMGWYRQAPGKERELVAAITSGGSTNYADSVKGRFTISRDNEKNTVYLQMNSLKPEDTAVYYCAKLFRKRRSWDWYDYWGQGTQVTVSS,high polyreactivity
8,QVQLEESAGGLVQAGGSLRLSCAASGFTFRRYARGWYRQAPGKERELVAAISSRGGSTYYADSVKGRFTISRDNAKNTGYLQMKSLKPEDTAVYYCNRDAWGGTDLLGYNYWGHGTQVTVSS,high polyreactivity
9,QVQLEESAGGLVQAGGSLRLSCAASGRIFKAYAMGWYRQAPGKERELVASISRDGSTSYADSVKGRFTISRDNEKNTVYLQMNSLKPEDTAVFYCAGPSYRTRYYFWGQGTQVNVSS,high polyreactivity
10,QVQLEESCGGLVQAGGSHRLICAASGPTIRYNGIGWYRQAPRKEREFLAAISWSGGSTYYADSVKGRFTISRDYAKNTVYLQMNSLKPEDTAVYYCNVDFHWQRFHHISADYDYWGLGTQVTVSS,high polyreactivity
11,QVQLEESGAGLVQAGGRHRLSCPASGFIFDWNAMGWYRQPPGKERELVAAISDDGDSTDYADSVKGRFTISRDNAKNTVYLQMNSLKPEDTAVYSCAANTERVYPCFSFGYWGQGTQVTVSS,low polyreactivity
12,QVQLEESGAGLVQAGGSLRLSCAASVSIFRQYAMGWYRQAPGKERELFAAINYSGGKTYYADSVKGRFTISRDNAKNTVYLQLNSLKPEDTAVYYCAADSVRHYWWAYYYWGQVTQVTVSS,low polyreactivity
13,QVQLEESGGALVQAGGSLRLSCAASGRTFSGNAMGWYRQAPGKERELVAAISSGGSTNYADSVKGRFTISRDNAKNTVYLQMNSLKPEDTAVYYCAADEWRFPSYAYYYWGQGTQVTVSS,low polyreactivity
14,QVQLEESGGCLVQAGGSLRLSCAASGYIFTPYAKGWYRPAPGKEREFVAAITRSGGSTYYADSVKGRFTISRDYAKNTVYLQMNSLKPEDTAVYYCARYANYDKRYDYWGQGTQVTVSS,high polyreactivity
15,QVQLEESGGGFVQAGGSLRLSCAASGSIFYYYVMGLYRQAAGKERELVAALTNSDRTYYADSVKGRFTISRDNAKNTVYLQMTSLKPEDTAVYYCAADYYWSPYYVYQFDYWGQGTQVTVSS,low polyreactivity
16,QVQLEESGGGIVQAGGSLRLRCAAAGRSVYYYAMAWYRQAPGKEREFVADITARGGSTYYADSVKGRFTISRDNAKNSVYLQMNSLKPEDTAVYYCAAYIYVTYYYWGQGTQVTVSS,high polyreactivity
17,QVQLEESGGGIVQAGGSLRLSCAASGRTFKLNAMGLYRQAPGKERELVAAISRNGGSTYYADSVKGRFTISRDNAKNTVFLQMNSLKPEDTAVYYCAAVRHGVSLAGYYWGQGTQVTVSS,high polyreactivity
18,QVQLEESGGGIVQAGGSLRLSCAASGSIFGVYAMGMYRQAPGKERELVAVISRGGTYYADSVKGRFTISRDNAKNTVYLQMHSLKPEDTAVYYCAARTRKSTVFYGLDYWGQGTQVTVSS,high polyreactivity
19,QVQLEESGGGLDQAGGSLRLTCAASGSIFLWNAMGWSRQSPGKERQLVAAISSGTSTIYADSVKGRFTISRDNAKNTVYLQMNSLKREDTAVYYCAARGRKNQRRYGYWGLGTQVTVSS,low polyreactivity
20,QVQLEESGGGLFQAGGSLRLRCAASGSIFHINAMGWYRQAPGKERELVADISHRGGSTYYADSVKGRFTISRDNAKNTVYLQMNSLKPEDTAVYYCAVVHVFYAVYYFSFYTYDYWGQGTQVTVSS,low polyreactivity
